Paper PMC3383001 (Cell, 2012)
One block for each binder: values may come before it.

B4: SUN2(522–717), minimal SUN domain of human SUN2 used for crystallography (domain or fragment, UniProt Q9UH99 522-717, looked up)
chain: GVTEEQVHHIVKQALQRYSEDRIGLADYALESGGASVISTRCSETYETKTALLSLFGIPLWYHSQSPRVILQPDVHPGNCWAFQGPQGFAVVRLSARIRPTAVTLEHVPKALSPNSTISSAPKDFAIFGFDEDLQQEGTLLGKFTYDQDGEPIQTFHFQAPTMATYQVVELRILTNWGHPEYTCIYRFRVHGEPAH

Columns and labels:
[1] = molecular target: the molecule itself; assay: AUC
[2] = molecular target: B4; assay: crystal structure
[3] = molecular target: B4; assay: crystal structure; remark: listed apart in the source
[4] = molecular target: the molecule itself; assay: crystal structure

B1: His-SUN2(335–717), luminal domain of human SUN2 (predicted coiled-coil regions and SUN domain) (domain or fragment, UniProt Q9UH99 335-717, looked up)
chain: LVSRREAALKEDFRRETAARIQEELSALRAEHQQDSEDLFKKIVRASQESEARIQQLKSEWQSMTQESFQESSVKELRRLEDQLAGLQQELAALALKQSSVAEEVGLLPQQIQAVRDDVESQFPAWISQFLARGGGGRVGLLQREEMQAQLRELESKILTHVAEMQGKSAREAAASLSLTLQKEGVIGVTEEQVHHIVKQALQRYSEDRIGLADYALESGGASVISTRCSETYETKTALLSLFGIPLWYHSQSPRVILQPDVHPGNCWAFQGPQGFAVVRLSARIRPTAVTLEHVPKALSPNSTISSAPKDFAIFGFDEDLQQEGTLLGKFTYDQDGEPIQTFHFQAPTMATYQVVELRILTNWGHPEYTCIYRFRVHGEPAH
stoichiometry N [1]: 3

Binder: B4
stoichiometry N [4]: 3

Next, values leading:

stoichiometry N [2]: 3 KASH2 peptides per SUN2 trimer
B2: KASH2 peptide (Nesprin-2, residues 6857–6885) co-expressed with SUN2(522–717) (peptide)
peptide: not shown

binding result [3]: binds
B3: KASH1 peptide (Nesprin-1, residues 8769–8797) co-expressed with SUN2(522–717) (peptide)
peptide: not shown
